{"source": "paper PMC5601083", "molecular_target": "T1, RbsR (Serratia sp. ATCC39006) (UniProt A0A2I5T2K0)", "T1 sequence": "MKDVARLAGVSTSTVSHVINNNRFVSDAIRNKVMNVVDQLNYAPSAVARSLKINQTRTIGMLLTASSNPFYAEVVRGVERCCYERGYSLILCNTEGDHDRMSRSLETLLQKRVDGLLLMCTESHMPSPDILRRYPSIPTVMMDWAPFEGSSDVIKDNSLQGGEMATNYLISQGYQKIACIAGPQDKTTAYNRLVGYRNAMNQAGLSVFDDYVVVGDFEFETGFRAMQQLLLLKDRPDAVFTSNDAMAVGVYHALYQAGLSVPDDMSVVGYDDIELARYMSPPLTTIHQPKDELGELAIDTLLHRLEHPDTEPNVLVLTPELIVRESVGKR", "assay": "EMSA", "conditions": "complete band shift at 14 nM RbsR (protein:DNA 2.8:1); 10% glycerol, 10 mM Tris pH 8.0, 1 mM DTT, 10 mM KCl, 0.5 mM EDTA, BSA (printed 20 ug m-1), 5 nM probe, 30 min on ice; 7.5% native gel in TGE at 4 C", "data": [{"substance": "rbsD upstream probe (LUEGO)", "values": [{"measurement": "binding", "value": 14, "unit": "nM"}]}]}
